Data: IntAct's records for PubMed 26188084

B1: SCL-interrupting locus protein (Homo sapiens), Q15468 (parent)
chain: MEPIYPFARPQMNTRFPSSRMVPFHFPPSKCALWNPTPTGDFIYLHLSYYRNPKLVVTEKTIRLAYRHAKQNKKNSSCFLLGSLTADEDEEGVTLTVDRFDPGREVPECLEITPTASLPGDFLIPCKVHTQELCSREMIVHSVDDFSSALKALQCHICSKDSLDCGKLLSLRVHITSRESLDSVEFDLHWAAVTLANNFKCTPVKPIPIIPTALARNLSSNLNISQVQGTYKYGYLTMDETRKLLLLLESDPKVYSLPLVGIWLSGITHIYSPQVWACCLRYIFNSSVQERVFSESGNFIIVLYSMTHKEPEFYECFPCDGKIPDFRFQLLTSKETLHLFKNVEPPDKNPIRCELSAESQNAETEFFSKASKNFSIKRSSQKLSSGKMPIHDHDSGVEDEDFSPRPIPSPHPVSQKISKIQPSVPELSLVLDGNFIESNPLPTPLEMVNNENPPLINHLEHLKPLQPQLYDEKHSPEVEAGEPSLRGIPNQLNQDKPALLRHCKVRQPPAYKKGNPHTRNSIKPSSHNGPSHDIFEKLQTVSAGNVQNEEYPIRPSTLNSRQSSLAPQSQPHDFVFSPHNSGRPMELQIPTPPLPSYCSTNVCRCCQHHSHIQYSPLNSWQGANTVGSIQDVQSEALQKHSLFHPSGCPALYCNAFCSSSSPIALRPQGDMGSCSPHSNIEPSPVARPPSHMDLCNPQPCTVCMHTPKTESDNGMMGLSPDAYRFLTEQDRQLRLLQAQIQRLLEAQSLMPCSPKTTAVEDTVQAGRQMELVSVEAQSSPGLHMRKGVSIAVSTGASLFWNAAGEDQEPDSQMKQDDTKISSEDMNFSVDINNEVTSLPGSASSLKAVDIPSFEESNIAVEEEFNQPLSVSNSSLVVRKEPDVPVFFPSGQLAESVSMCLQTGPTGGASNNSETSEEPKIEHVMQPLLHQPSDNQKIYQDLLGQVNHLLNSSSKETEQPSTKAVIISHECTRTQNVYHTKKKTHHSRLVDKDCVLNATLKQLRSLGVKIDSPTKVKKNAHNVDHASVLACISPEAVISGLNCMSFANVGMSGLSPNGVDLSMEANAIALKYLNENQLSQLSVTRSNQNNCDPFSLLHINTDRSTVGLSLISPNNMSFATKKYMKRYGLLQSSDNSEDEEEPPDNADSKSEYLLNQNLRSIPEQLGGQKEPSKNDHEIINCSNCESVGTNADTPVLRNITNEVLQTKAKQQLTEKPAFLVKNLKPSPAVNLRTGKAEFTQHPEKENEGDITIFPESLQPSETLKQMNSMNSVGTFLDVKRLRQLPKLF
partner: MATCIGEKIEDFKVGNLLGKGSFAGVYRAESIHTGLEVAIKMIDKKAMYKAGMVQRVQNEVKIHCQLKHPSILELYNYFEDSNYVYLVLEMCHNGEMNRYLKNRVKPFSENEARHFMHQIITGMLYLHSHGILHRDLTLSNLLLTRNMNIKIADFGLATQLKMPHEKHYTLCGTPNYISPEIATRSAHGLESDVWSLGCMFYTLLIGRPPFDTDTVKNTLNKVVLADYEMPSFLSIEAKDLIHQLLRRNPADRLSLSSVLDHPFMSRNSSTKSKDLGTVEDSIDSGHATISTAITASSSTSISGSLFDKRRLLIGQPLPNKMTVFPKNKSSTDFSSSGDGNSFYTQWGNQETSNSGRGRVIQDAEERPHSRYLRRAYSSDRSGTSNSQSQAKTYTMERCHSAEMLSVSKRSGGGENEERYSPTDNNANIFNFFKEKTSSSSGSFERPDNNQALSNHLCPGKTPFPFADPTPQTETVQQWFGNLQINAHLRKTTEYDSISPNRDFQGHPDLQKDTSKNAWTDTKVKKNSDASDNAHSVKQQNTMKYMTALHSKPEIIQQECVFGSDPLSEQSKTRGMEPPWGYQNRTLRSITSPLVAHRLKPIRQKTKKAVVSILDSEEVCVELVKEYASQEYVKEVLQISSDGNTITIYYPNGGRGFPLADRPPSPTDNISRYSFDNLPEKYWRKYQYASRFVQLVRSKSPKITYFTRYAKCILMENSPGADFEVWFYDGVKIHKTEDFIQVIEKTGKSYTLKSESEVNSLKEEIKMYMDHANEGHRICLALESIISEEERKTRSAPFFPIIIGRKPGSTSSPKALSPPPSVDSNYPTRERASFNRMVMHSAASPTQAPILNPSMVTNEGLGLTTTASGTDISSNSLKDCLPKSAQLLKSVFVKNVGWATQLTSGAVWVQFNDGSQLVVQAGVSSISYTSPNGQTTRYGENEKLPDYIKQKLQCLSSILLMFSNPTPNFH
B2: Serine/threonine-protein kinase PLK4 (Homo sapiens), O00444 (parent)
chain: B1 partner
partner: B1 chain

Variants of: B1
Settings: with plk4_human PLK4, O00444

| Variant | effect of a mutation on the interaction |
| --- | --- |
| L733D;L736E;I740K;L743D | with no effect |
| L733D;L736E;L743D | with no effect |
| L733D;L743D | decreasing interaction strength |
| L733D;I740K;L743D | with no effect |

More lines, now with the values ahead:

| effect of a mutation on the interaction | Variant |
| --- | --- |
| with no effect | L733E;I740E;L743E |
| decreasing interaction strength | Q737K;Q739E |
| with no effect | L733Y;L743Y |

Variants of: B2
Settings: with stil_human STIL

| effect of a mutation on the interaction | Variant |
| --- | --- |
| with no effect | S285A;T289A |
